The results in this text go back to patent publication US20260266848A1, “COMPOSITIONS AND METHODS FOR DIAGNOSING AND TREATING DYSTONIA” (Duke University, priority 2023, published 2026).

The test system of assay [1] is WT MEF EVs. Description: Quantitative LC-MS/MS proteomics of EVs from ISRIB-treated WT MEF cultures. Also on record: key to ISRIB and DYT Parallel Direction / ISRIB and DYT Parallel Direction, Ctdsp1 / ISRIB and DYT Parallel Direction, Pcdh19 / ISRIB and DYT Parallel Direction, Tspan7 / ISRIB and DYT Parallel Direction, Myo1e / ISRIB and DYT Parallel Direction, Plpp3 / ISRIB and DYT Parallel Direction, Sh3bp4 / ISRIB and DYT Parallel Direction, Dnajc7 / ISRIB and DYT Parallel Direction, Drg1 / ISRIB and DYT Parallel Direction, Maea: YES = protein abundance effect similar to DYT/WT. It counts as cell-based, mouse. The following applies: EV protein abundance; for WT + ISRIB/WT Cohen's d: ISRIB-treated WT vs WT.

Assay [2] relates to DYT-TOR1A MEF EVs. Description: Quantitative LC-MS/MS proteomics of EVs from drug-treated DYT-TOR1A MEF cultures (ritonavir, salubrinal). It counts as cell-based, mouse. Also on record: key to RTV Corrective Direction / RTV Corrective Direction, Grwd1 / RTV Corrective Direction, Srrm2 / RTV Corrective Direction, Rbm17 / RTV Corrective Direction, Dcaf8 / RTV Corrective Direction, Edil3 / RTV Corrective Direction, Timp3 / RTV Corrective Direction, Heatr3 / RTV Corrective Direction, Brd4 / RTV Corrective Direction, P3h4 / RTV Corrective Direction, Pacsin3 / RTV Corrective Direction, Naa50 / RTV Corrective Direction, Lpar6 / RTV Corrective Direction, Ndrg1 / RTV Corrective Direction, Kntc1 / RTV Corrective Direction, Cdk11b / RTV Corrective Direction, Sumo1 / RTV Corrective Direction, Lsm4 / RTV Corrective Direction, Hmga2 / RTV Corrective Direction, Cstf1 / RTV Corrective Direction, Tes / RTV Corrective Direction, Sbno1 / RTV Corrective Direction, Unc119b / RTV Corrective Direction, Cfdp1 / RTV Corrective Direction, Sec61b: YES = protein abundance effect opposite to DYT/WT. The following applies: EV protein abundance; for RTV Corrective Direction: DYT + RTV (ritonavir) vs DYT, direction compared with DYT/WT; for DYT + RTV/DYT Cohen's d: ritonavir (RTV)-treated DYT vs DYT.

B1: Nap1l4 (protein, UniProt Q78ZA7 2-375, looked up)
Nucleosome assembly protein …: AENSLSDGGPADSVEAAKNASNTEKLTDQVMQNPQVLAALQERLDNVSHTPSSYIETLPKAVKRRINALKQLQVRCAHIEAKFYEEVHDLERKYAALYQPLFDKRREFITGDVEPTDAESAWHSENEEEDKLAGDMKNKVVIAEKEAATVEELNPKGIPEFWFTIFRNVDMLSELVQEYDEPILKHLQDIKVKFSDPGQPMSFVLEFHFEPNDYFTNPVLTKTYKMKSEPDKADPFSFEGPEIVDCDGCTIDWKKGKNVTVKTIKKKQKHKGRGTVRTITKQVPNESFFNFFSPLKASGDGESLDEDSEFTLASDFEIGHFFRERIVPRAVLYFTGEAIEDDDNFEEGEEGEEEELEGDEEGEDEDDADVNPKV
In the case of B1, the “WT + ISRIB/WT Cohen's d” value in assay [1] was found to be 2.43. Besides, in assay [2], the “RTV Corrective Direction” value is “YES” and the “DYT + RTV/DYT Cohen's d” value was found to be 5.74.

B2: Ube2n (protein, UniProt P61089 1-152, looked up)
Ubiquitin-conjugating enzyme …: MAGLPRRIIKETQRLLAEPVPGIKAEPDESNARYFHVVIAGPQDSPFEGGTFKLELFLPEEYPMAAPKVRFMTKIYHPNVDKLGRICLDILKDKWSPALQIRTVLLSIQALLSAPNPDDPLANDVAEQWKTNEAQAIETARAWTRLYAMNNI
B2: the “WT + ISRIB/WT Cohen's d” value in assay [1] was determined as 0.41. Further, in assay [2], the “RTV Corrective Direction” value is “YES” and the “DYT + RTV/DYT Cohen's d” value was 6.02.

B3: Cxadr (protein, UniProt P97792 20-365, looked up)
Coxsackievirus and adenovirus …: LSITTPEQRIEKAKGETAYLPCKFTLSPEDQGPLDIEWLISPSDNQIVDQVIILYSGDKIYDNYYPDLKGRVHFTSNDVKSGDASINVTNLQLSDIGTYQCKVKKAPGVANKKFLLTVLVKPSGTRCFVDGSEEIGNDFKLKCEPKEGSLPLQFEWQKLSDSQTMPTPWLAEMTSPVISVKNASSEYSGTYSCTVQNRVGSDQCMLRLDVVPPSNRAGTIAGAVIGTLLALVLIGAILFCCHRKRREEKYEKEVHHDIREDVPPPKSRTSTARSYIGSNHSSLGSMSPSNMEGYSKTQYNQVPSEDFERAPQSPTLAPAKVAAPNLSRMGAVPVMIPAQSKDGSIV
With B3, the “WT + ISRIB/WT Cohen's d” value in assay [1] was 1.72. For the same molecule, in assay [2], the “RTV Corrective Direction” value is on record as “YES” and the “DYT + RTV/DYT Cohen's d” value stood at 3.88.

B4: Cnn3 (protein, UniProt Q9DAW9 1-330, looked up)
Calponin-3: MTHFNKGPSYGLSAEVKNKIASKYDQQAEEDLRNWIEEVTGLGIGTNFQLGLKDGIILCELINKLQPGSVKKVNESSLNWPQLENIGNFIKAIQAYGMKPHDIFEANDLFENGNMTQVQTTLVALAGLAKTKGFHTTIDIGVKYAEKQTRRFDEGKLKAGQSVIGLQMGTNKCASQAGMTAYGTRRHLYDPKMQTDKPFDQTTISLQMGTNKGASQAGMLAPGTRRDIYDQKLTLQPVDNSTISLQMGTNKVASQKGMSVYGLGRQVYDPKYCAAPTEPVIHNGSQGTGTNGSEISDSDYQAEYPDEYHGEYPDDYPREYQYGDDQGIDY
B4: the “WT + ISRIB/WT Cohen's d” value in assay [1] stood at 2.76. Moreover, in assay [2], the “RTV Corrective Direction” value is “YES” and the “DYT + RTV/DYT Cohen's d” value is reported as 4.78.

B5: Uso1 (protein, UniProt Q9Z1Z0 1-959, looked up)
General vesicular transport …: MNFLRGVMGGQSAGPQHTEAETIQKLCDRVASSTLLDDRRNAVRALKSLSKKYRLEVGIQAMEHLIHVLQTDRSDSEIIAYALDTLYNIISNDEEEELEENSTRQSEDLGSQFTEIFIKQPENVTLLLSLLEEFDFHVRWPGVRLLTSLLKQLGPPVQQIILVSPMGVSRLMDLLADSREIIRNDGVLLLQALTRSNGAIQKIVAFENAFERLLDIITEEGNSDGGIVVEDCLILLQNLLKTNNSNQNFFKEGSYIQRMKPWFEVGEENSGWSAQKVTNLHLMLQLVRVLVSPTNPPGATSSCQKAMFQCGLLQQLCTILMATGIPADILTETINTVSEVIRGCQVNQDYFASVNAPSNPPRPAIVVLLMSMVNERQPFVLRCAVLYCFQCFLYKNEKGQGEIVATLLPSTIDATGNSVSAGQLLCGGLFSTDSLSNWCAAVALAHALQGNATQKEQLLRVQLATSIGNPPVSLLQQCTNILSQGSKIQTRVGLLMLLCTWLSNCPIAVTHFLHNSANVPFLTGQIAENLGEEEQLVQGLCALLLGISIYFNDNSLENYTKEKLKQLIEKRIGKENFIEKLGFISKHELYSRASQKPQPNFPSPEYMIFDHEFTKLVKELEGVITKAIYKSSEEDKKEEEVKKTLEQHDNIVTHYKNMIREQDLQLEELKQQVSTLKCQNEQLQTAVTQQASQIQQHKDQYNLLKVQLGKDNHHQGSHGDGAQVNGIQPEEISRLREEIEELKSQQALLQGQLAEKDSLIENLKSSQASGMSEQASATCPPRDPEQVAELKQELTALKSQLCSQSLEITRLQTENCELLQRAETLAKSVPVEGESEHVSAAKTTDVEGRLSALLQETKELKNEIKALSEERTAIQKQLDSSNSTIAILQTEKDKLDLEVTDSKKEQDDLLVLLADQDQKILSLKSKLKDLGHPVEEEDESGDQEDDDDEIDDGDKDQDI
B5: the “WT + ISRIB/WT Cohen's d” value in assay [1] stood at 2.44. In assay [2], the “RTV Corrective Direction” value was “YES” and the “DYT + RTV/DYT Cohen's d” value was found to be 9.12.

B6: Fus (protein, UniProt P56959 1-518, looked up)
RNA-binding protein FUS: MASNDYTQQATQSYGAYPTQPGQGYSQQSSQPYGQQSYSGYGQSADTSGYGQSSYGSSYGQTQNTGYGTQSAPQGYGSTGGYGSSQSSQSSYGQQSSYPGYGQQPAPSSTSGSYGGSSQSSSYGQPQSGGYGQQSGYGGQQQSYGQQQSSYNPPQGYGQQNQYNSSSGGGGGGGGGNYGQDQSSMSGGGGGGGYGNQDQSGGGGGGYGGGQQDRGGRGRGGGGGYNRSSGGYEPRGRGGGRGGRGGMGGSDRGGFNKFGGPRDQGSRHDSEQDNSDNNTIFVQGLGENVTIESVADYFKQIGIIKTNKKTGQPMINLYTDRETGKLKGEATVSFDDPPSAKAAIDWFDGKEFSGNPIKVSFATRRADFNRGGGNGRGGRGRGGPMGRGGYGGGGSGGGGRGGFPSGGGGGGGQQRAGDWKCPNPTCENMNFSWRNECNQCKAPKPDGPGGGPGGSHMGGNYGDDRRGRGGYDRGGYRGRGGDRGGFRGGRGGGDRGGFGPGKMDSRGEHRQDRRERPY
Regarding B6, the “WT + ISRIB/WT Cohen's d” value in assay [1] stood at 0.85. Further, in assay [2], the “RTV Corrective Direction” value is “YES” and the “DYT + RTV/DYT Cohen's d” value came to 11.94.

B7: Impa1 (protein, UniProt O55023 1-277, looked up)
Inositol monophosphatase 1: MADPWQECMDYAVILARQAGEMIREALKNEMDVMIKSSPADLVTVTDQKVEKMLMSSIKEKYPCHSFIGEESVAAGEKTVFTESPTWFIDPIDGTTNFVHRFPFVAVSIGFLVNKEMEFGIVYSCVEDKMYTGRKGKGAFCNGQKLQVSQQEDITKSLLVTELGSSRKPETLRIVLSNMEKLCSIPIHGIRSVGTAAVNMCLVATGGADAYYEMGIHCWDMAGAGIIVTEAGGVLMDVTGGPFDLMSRRIIAANSITLAKRIAKEIEIIPLQRDDES
As for B7, the “WT + ISRIB/WT Cohen's d” value in assay [1] came out at 1.73. Further, in assay [2], the “RTV Corrective Direction” value is “YES” and the “DYT + RTV/DYT Cohen's d” value was 10.89.

B8: Hnrnph1 (protein, UniProt O35737 1-449, looked up)
Heterogeneous nuclear …: MMLGAEGGEGFVVKVRGLPWSCSADEVQRFFSDCKIQNGAQGIRFIYTREGRPSGEAFVELESEDEVKLALKKDRETMGHRYVEVFKSNNVEMDWVLKHTGPNSPDTANDGFVRLRGLPFGCSKEEIVQFFSGLEIVPNGITLPVDFQGRSTGEAFVQFASQEIAEKALKKHKERIGHRYIEIFKSSRAEVRTHYDPPRKLMAMQRPGPYDRPGAGRGYNSIGRGAGFERMRRGAYGGGYGGYDDYNGYNDGYGFGSDRFGRDLNYCFSGMSDHRYGDGGSTFQSTTGHCVHMRGLPYRATENDIYNFFSPLNPVRVHIEIGPDGRVTGEADVEFATHEDAVAAMSKDKANMQHRYVELFLNSTAGASGGAYEHRYVELFLNSTAGASGGAYGSQMMGGMGLSNQSSYGGPASQQLSGGYGGGYGGQSSMSGYDQVLQENSSDFQSNIA
B8: in assay [1], the “WT + ISRIB/WT Cohen's d” value stood at 2.47. In assay [2], the “RTV Corrective Direction” value is given as “YES” and the “DYT + RTV/DYT Cohen's d” value was 4.23.

B9: Vapa (protein, UniProt Q9WV55 2-249, looked up)
Vesicle-associated membrane …: ASASGAMAKHEQILVLDPPSDLKFKGPFTDVVTTNLKLQNPSDRKVCFKVKTTAPRRYCVRPNSGIIDPGSIVTVSVMLQPFDYDPNEKSKHKFMVQTIFAPPNISDMEAVWKEAKPDELMDSKLRCVFEMPNENDKLNDMEPSKAVPLNASKQDGPLPKPHSVSLNDTETRKLMEECKRLQGEMMKLSEENRHLRDEGLRLRKVAHSDKPGSTSAVSFRDNVTSPLPSLLVVIAAIFIGFFLGKFIL
As to B9, in assay [1], the “WT + ISRIB/WT Cohen's d” value came to 3.18. Further, in assay [2], the “RTV Corrective Direction” value is “YES” and the “DYT + RTV/DYT Cohen's d” value is listed as 1.91.

B10: Extl2 (protein, UniProt Q9ES89 1-330, looked up)
Exostosin-like 2: MMRGCHICKLPGRVMGIRVLRFSLVVILVLLLVAGALTNLLPNIKEDKMLTLRREIKSPSKSALDSFTLIMQTYNRTDLLLRLLNHYQAVPSLHKVIVVWNNVGEKGPEELWNSLGPHPIPVIFKPQTANKMRNRLQVFPEVETNAVLMVDDDTLISAQDLVFAFSIWQQFPDQIIGFVPRKHVSTSSGIYSYGGFELQTPGPGNGDQYSMVLIGASFFNSKYLELFQKQPAAVHALIDETQNCDDIAMNFLVTRHTGKPSGIFVKPINMVNLEKETNGYSGMWHRAEHFLQRSYCINKLVNIYDGMPLKYSNIMISQFGFPYANHKSKM
Consider B10, for which, in assay [1], the “WT + ISRIB/WT Cohen's d” value is −1.42. Besides, the “ISRIB and DYT Parallel Direction” value in assay [1] (WT + ISRIB vs WT, direction compared with DYT/WT) is “YES”. For the same molecule, in assay [2], the “RTV Corrective Direction” value is given as “YES” and the “DYT + RTV/DYT Cohen's d” value was determined as 0.12.
